Experimental data taken from patent US6770448B2, “Fluorescent amyloid Aβ peptides and uses thereof” (The Regents of the University of California, priority 1997, dated 2004).

Columns and labels:
[1] = Gel filtration chromatography (Superdex 75 HR 10/30), oligomeric structure; assay type: physicochemical; conditions: Superdex 75, Buffer A
Description: The peptides were dissolved in DMSO for 30 minutes and then ten fold diluted in buffer A at a final protein concentration of 5-10 μM. A 200 μl aliquot was loaded onto a Superdex 75HR 10/30 column and eluted at a rate of 0.4 ml/min.
Gel filtration analysis was performed with a Pharmacia Superdex 75 HR 10/30 column using a Waters 490 multiple wavelength UV absorbance detector and Hewlett Packard 3250 fluorescence detector. Data were collected with a Waters Maxima chromatography data system. The running buffer used was 50 mM Tris, 0.1 M NaCl, pH 7.4 (Buffer A) in the presence of 10% or 2% DMSO. The column was calibrated with the following molecular weight standards: thyroglobulin, bovine serum albumin, ovalbumin, soybean trypsin inhibitor, ubiquitin, aprotinin, and insulin β-chain. The peptides were detected by UV absorbance at 280 nm and by fluorescence at 482 and 520 nm for IAEDANS and FM respectively.

[2] = Denaturation (unfolding) of Aβ in DMSO monitored by tyrosine or AEDANS fluorescence; assay type: physicochemical
Description: FIG. 3 is a graph illustrating the unfolding of Aβ measured by tyrosine fluorescence and 1,5-IAEDANS fluorescence. […] The protein concentration was 5-10 μM of Aβ.
For refolding experiments, samples were incubated in 100% DMSO for 1 hour at room temperature, and refolding was initiated by ten or fifty times dilution of the solvent in Tris buffered solution. The concentration of peptide ranged between 3 and 10 μM.
Absorption measurements were measured with a Perkin Elmer Lambda 3B UV-Vis spectrophotometer. Fluorescence spectra (excitation band pass 4 nm; emission band pass 8 nm) were measured either on an Aminco SLM 48000 or a SPEX Fluorolog F112A spectrofluorometer. Intrinsic tyrosine fluorescence was measured from 285 to 400 nm upon excitation at 275 nm. […] The lifetime measurements for FM were acquired using the 488 nm line of argon ion laser for excitation using a multiharmonic frequency-domain spectrofluorometer (Aminco 48000S).

For “14C-labeled Aβ 1-40: Aβ synthesized by incorporation of Fmoc-14C-Ala at position 2, 36 mCi/mmol”, the “elution position on gel filtration” value [1] was “eluted at the position expected for a dimer”.
With “AβC4FM: Aβ with cys in position 4 and labeled with FM” the “unfolding curve compared with AβC25-AEDANS” value [2] was “identical unfolding curves”.
With “AβC7FM: Aβ with cys in position 7 and labeled with FM” the “unfolding curve compared with AβC25-AEDANS” value [2] was “identical unfolding curves”.
